From patent US6040149A, “Assay for identifying agents which act on the ceramide-activated protein kinase, kinase suppressor of ras, and methods of using said agents” (priority 1997, dated 2000)

Experiments:
[1] = system: ceramide-activated protein kinase; assay: EGFR peptide phosphorylation in a cell-free system (HL-60 nuclei-free supernate); format: biochemical, human (HL-60 cells)
Procedure: Effect of TNF-α on ceramide-activated protein kinase activity. HL-60 cells were incubated in serum-free medium and homogenized (as in FIG. 9). […] ATP (750 μM, 4000 dpm pmol^-1), and 75 μl of reaction buffer. […] Phosphorylated peptide was first run on a C18 Sep-Pak cartridge, then resolved by C18 reverse-phase HPLC (Waters, Milford, Mass.), with a linear gradient of acetonitrile. The peptide eluted at 30% acetonitrile, as determined by monitoring Cerenkov radiation in 1-ml fractions. Background activity was subtracted from each point. (A) Kinetics of TNF-α (30 nM)-stimulated EGFR peptide phosphorylation. Values (mean) represent data from four experiments. (B) Concentration dependence of EGFR peptide phosphorylation at 5 minutes of stimulation with TNF-α (0.01 to 30 nM). Values (mean) represent data derived from duplicate points in two experiments. The SEM of the values in (A) was 18% and the mean range of values in (B) was 3%.
Effect of phospholipases on ceramide-activated protein kinase activity. Nuclei-free supernates, prepared as in FIG. 9, were first incubated with TNF-α (3 nM) or added directly to reaction mixtures that contained various phospholipases; sphingomyelinase (SMase) (1×10^-3 U ml^-1, S. aureus), phospholipase A2 (PlA2) (3.8×10^-2 and 3.8×10^-1 U ml^-1, Vipera ruselli), phospholipase C (PLC) (3.8×10^-2 U ml^-1, Bacillus cereus) and phospholipase D (PLD) (3.8×10^-2 U ml^-1, Streptomyces chromocuscus). Peptide phosphorylation was measured as in FIG. 10. Control value represents peptide phosphorylation in the absence of phospholipases or TNF-α. Values (mean±SEM) represent data derived from duplicate samples in three experiments. *P<0.001 compared to control.
The effect of TNF-α on ceramide-activated protein kinase activity was assessed. […] For studies assessing the effect of TNFα in broken cell preparations, nuclei-free supernates were incubated under conditions sufficient for stimulation of neutral sphingomyelinase in a reaction mixture that also contained EGFR peptide and γ-^32 P-labeled ATP. Phosphorylated peptide was resolved by high-performance liquid chromatograph (HPLC) and quantified by Cerenkov counting. Kinase activity was calculated from the specific activity of [γ-^32 P] ATP and incorporation of ^32 P into EGFR peptide. Background activity was subtracted from each point. […] TNF-α stimulation of kinase activity was evident by 1 minute and demonstrable for at least 10 minutes. If the initial incubation with TNF-α at 4° C. was omitted and TNF was added directly to the reaction mixture at 22° C., the reaction was delayed. […] TNF-α enhanced kinase activity in a concentration-dependent manner at 5 minutes (FIG. 10B). […] This is similar to the ED50 of 200 pM for stimulation of ceramide-activated protein kinase by TNF-α in intact cells. TNF-α enhanced kinase activity in a total of 20 separate studies.
Control activity reflects several TNF-α-independent protein kinases that are known to phosphorylate EGFR peptide on Thr^669.

[2] = system: Raf-1; assay: Raf-1 phosphorylation in intact HL-60 cells; format: cell-based, human (HL-60 cells)
Procedure: To examine this possibility, intact HL-60 cells were metabolically labeled with ^32 P-orthophosphate for 4 hr followed by stimulation with TNF for the indicated times (FIG. 20A). […] Raf-1 proteins were resolved by SDS-PAGE and autoradiographed.
FIG. 20A--300×10^6 cells were resuspended at 37° C. in 15 ml of serum-free phosphate-free RPMI medium ([…]) containing 6 mCi ^32 P-orthophosphate. After […], cells were resuspended into the same buffer without radiolabel (5×10^7 /point) and stimulated with TNF (1 nM). At the indicated times, ice-cold serum-free phosphate-free RPMI was added and cells were homogenized as described in FIG. 17 in RIPA lysis buffer. Cell debris was removed by centrifugation at 700×g for 5 min. […] After SDS-PAGE, Raf-1 was transferred to an Immobilon PVDF (Millipore) membrane according to the vendor's instructions. […] The data (CPM/Raf protein) are presented as fold of control and represent one of three studies performed in triplicate.

[3] = system: ceramide-activated protein kinase; conditions: ref. [40]; cited from earlier work
[4] = system: Raf-1; assay: Raf-1 phosphorylation in vitro by renatured CAP kinase; format: biochemical, human (recombinant Raf-1); conditions: CAP kinase from TNF-stimulated HL-60 cells
Excerpt: The data represent one of five similar experiments.
The data represent one of four similar experiments.
The data represent one of three similar experiments.
CAP kinase was the only kinase to renature from HL-60 cell membranes and that this activity was exclusively membrane-bound, since no 100-110 kDa activity could be renatured from cytosolic fractions. […] Conditions for CAP kinase activity were optimized previously using myelin basic protein (MBP) or a peptide derived from the amino acid sequence surrounding Thr669 of the epidermal growth factor receptor as substrates.
FIG. 17A--HL-60 cells were incubated in serum-free RPMI [RPMI containing 16 mg/ml serine, 8.4 mg/ml asparagine, 16.7 mg/ml glutamine, 25 mM HEPES, pH 7.4 and 0.5 mg/ml each of insulin and transferrin] at 1×106 ml^-1 for 2 hr, followed by stimulation with TNF (1 nM) for 20 min. […] Centrifugation for 5 min at 700×g yielded a post-nuclear supernate from which microsomal membranes were prepared by centrifugation at 250,000×g for 30 min. Microsomal membranes were resuspended into homogenizing buffer and proteins (30×10^6 cell equivalents/lane)were resolved on a 7.5% SDS-polyacrylamide gel. CAP kinase was renatured as described by Liu et al.. […]

TNF-α
concentration of maximal effect (kinase activity) ([1]; 5 minutes): 3 nM | effective concentration (kinase activity) ([1]; 5 minutes): 10 pM | ED50 for kinase activity ([1]; 5 minutes, cell-free): ≈ 300 pM | onset of stimulation of kinase activity ([1]; TNF-α 30 nM, P<0.001): ≤ 1 min | duration of elevated Raf-1 phosphorylation ([2]; TNF): at least 20 min | Raf-1 phosphorylation in intact HL-60 cells ([2]; TNF 1 nM, ceramide, sphingomyelinase 10 mU/ml): increased within seconds | ED50 for stimulation of ceramide-activated protein kinase in intact cells [3]: 0.2 nM | enhancement of Raf-1 phosphorylation [4]: 4-5 fold
